Source: patent publication US20110159588A1 (published 2011)

B1: gD-TMEFF2-ΔFS I (gD-tagged TMEFF2 lacking the N-terminal follistatin module FS I) on 293 cells (receptor)
chain: KYALADASLKMADPNRFRGKDLPVLSGRCDICQFGAECDEDAEDVWCVCNIDCSQTNFNPLCASDGKSYDNACQIKEASCQKQEKIEVMSLGRCQDNTTTTTKSEDGHYARTDYAENANKLEESAREHHIPCPEHYNGFCMHGKCEHSINMQEPSCRCDAGYTGQHCEKKDYSVLYVVPGPVRFQYVLIAAVIGTIQIAVICVVVLCITRKCPRSNRIHRQKQNTGHYSSDNTTRASTRLI
notes: Deletion mutant; The true chain lacks the region up to and including FS I
B2: TECD-FLAG (extracellular domain of TMEFF2 fused to a FLAG tag at the carboxy-terminus) (other)
chain: FPTSLSDCQTPTGWNCSGYDDRENDLFLCDTNTCKFDGECLRIGDTVTCVCQFKCNNDYVPVCGSNGESYQNECYLRQAACKQQSEILVVSEGSCATDAGSGSGDGVHEGSGETSQKETSTCDICQFGAECDEDAEDVWCVCNIDCSQTNFNPLCASDGKSYDNACQIKEASCQKQEKIEVMSLGRCQDNTTTTTKSEDGHYARTDYAENANKLEESAREHHIPCPEHYNGFCMHGKCEHSINMQEPSCRCDAGYTGQHCEKKWRADYKDDDDK
notes: Expressed in mammalian cells, purified from supernatant; also called FLAG-tagged TECD; TMEFF2-ECD
B3: recombinant human PDGF-CC (ligand, UniProt Q9NRA1 235-345, looked up)
chain: VVDLNLLTEEVRLYSCTPRNFSVSIREELKRTDTIFWPGCLLVKRCGGNCACCLHNCNECQCVPSKVTKKYHEVLQLRPKTGVRGLHKSLTDVALEHHEECDCVCRGSTGG
notes: Bought homodimer
B4: recombinant human PDGF-BB (ligand, UniProt P01127 82-190, looked up)
chain: SLGSLTIAEPAMIAECKTRTEVFEISRRLIDRTNANFLVWPPCVEVQRCSGCCNNRNVQCRPTQVQLRPVQVRKIEIVRKKPIFKKATVTLEDHLACKCETVAAARPVT
notes: Bought homodimer
B5: TECD-Fc (extracellular domain of TMEFF2 fused to the Fc portion of human immunoglobulin gamma at the carboxy-terminus) (Fc fusion)
chain: FPTSLSDCQTPTGWNCSGYDDRENDLFLCDTNTCKFDGECLRIGDTVTCVCQFKCNNDYVPVCGSNGESYQNECYLRQAACKQQSEILVVSEGSCATDAGSGSGDGVHEGSGETSQKETSTCDICQFGAECDEDAEDVWCVCNIDCSQTNFNPLCASDGKSYDNACQIKEASCQKQEKIEVMSLGRCQDNTTTTTKSEDGHYARTDYAENANKLEESAREHHIPCPEHYNGFCMHGKCEHSINMQEPSCRCDAGYTGQHCEKK
notes: also called TECD-hFc; Fc-tagged TECD; not shown: subc

Tests used:
[1] = biological target: T1, recombinant human PDGF-AA (human, UniProt P04085 87-211, limits assumed); experiment: co-immunoprecipitation with anti-gD mAb from transfected 293 cells, anti-PDGF-A blot
T1 construct: Bought homodimer
Method: For binding of PDGF ligands to membrane-bound TMEFF2 proteins, 293 cells were transfected with the various TMEFF2 constructs and changed to fresh growth medium containing 5 μg/ml PDGF-AA or AB 48 hours after transfection. After 1 hour of incubation unbound PDGF ligands were washed away with ice cold PBS and cells were lysed in lysis buffer containing 50 mM Tris pH 8.0, 150 mM NaCl, 1 mM EDTA, 1% NP-40, and protease and phosphatase inhibitors, pre-cleared with protein G SEPHAROSE, and immunoprecipitated with anti-TMEFF2, anti-PDGF, or anti-gD antibodies. The immune complexes were dissociated with SDS sample buffer with (reducing condition) or without (non-reducing condition) β-mercaptoethanol and resolved by 4-20% Tris-Glycine SDS PAGE, transferred to nitrocellulose membranes, and detected with the indicated antibodies using enhanced chemiluminescence.
TMEFF2 contains 2 FS modules and an EGF-like domain. To dissect which domain(s) of TMEFF2 is/are involved in its interaction with PDGF-AA, Herpes simplex type 1 glycoprotein D (gD)-epitope tagged deletion mutants of TMEFF2 were made and examined for their ability to bind PDGF-AA when expressed on the surface of 293 cells (FIG. 4). As expected, PDGF-AA co-immunoprecipitated with gD-tagged full-length TMEFF2 by an anti gD monoclonal antibody. […]

[2] = biological target: T2, HER4 (human EGF-like receptor 4) ECD fused to hFcγ (human, UniProt Q15303 26-651); experiment: ELISA, TECD-FLAG coat, anti-human Fc-HRP detection
T2 construct: extracellular domain; not shown: human Fc gamma
T2 sequence (looked up): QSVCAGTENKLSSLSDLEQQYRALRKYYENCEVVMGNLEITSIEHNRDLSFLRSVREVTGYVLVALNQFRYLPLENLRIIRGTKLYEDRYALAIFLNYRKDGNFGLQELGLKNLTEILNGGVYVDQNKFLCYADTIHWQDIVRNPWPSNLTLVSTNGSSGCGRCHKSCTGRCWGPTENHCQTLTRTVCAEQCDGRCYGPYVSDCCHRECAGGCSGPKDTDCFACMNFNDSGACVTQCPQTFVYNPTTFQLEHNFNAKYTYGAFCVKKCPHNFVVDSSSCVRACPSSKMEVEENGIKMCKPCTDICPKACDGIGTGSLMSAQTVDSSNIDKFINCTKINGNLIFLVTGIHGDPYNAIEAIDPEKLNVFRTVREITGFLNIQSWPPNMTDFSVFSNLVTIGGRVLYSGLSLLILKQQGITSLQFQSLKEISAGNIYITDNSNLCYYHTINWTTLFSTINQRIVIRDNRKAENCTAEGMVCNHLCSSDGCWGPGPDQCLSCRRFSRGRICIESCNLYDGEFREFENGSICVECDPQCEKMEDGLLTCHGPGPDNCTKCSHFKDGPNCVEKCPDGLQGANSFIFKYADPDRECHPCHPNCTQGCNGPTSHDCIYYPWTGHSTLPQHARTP
Method: (§1) For the TMEFF2 coat format, MaxiSorp 96-well microwell plates (Thermo Scientific Nunc, Roskilde, Denmark) were coated with 1 μg/ml TECD-FLAG in 50 mM carbonate buffer, pH 9.6, overnight at 4° C. Plates were washed with PBS, pH 7.4 containing 0.05% polysorbate 20 and blocked with 0.5% bovine serum albumin (BSA), 15 parts per million Proclin 300 in phosphate buffered saline (PBS), pH 7.4 for 1 hour at room temperature. Serially diluted PDGF-AA, PDGF-AB or PDGF-BB in PBS containing 0.5% BSA, 0.05% polysorbate 20, and 15 parts per million Proclin 300 were added to the plates. After a 2-hour incubation, PDGF bound to the plates was detected by incubating biotinylated goat anti-human PDGF-AA or PDGF-AB or PDGF-BB in the wells for 1 hour, followed by horseradish peroxidase conjugated streptavidin (GE Healthcare, Piscataway, N.J.) for 30 min. Bound Fc-fusion protein was detected by adding goat anti-hman Fc-HRP (Jackson ImmunoResearch, West Grove, Pa.). After a final wash, the substrate 3,3′,5,5′-tetramethyl benzidine (Kirkegaard & Perry Laboratories) was added to plates and the reaction was stopped by adding 1 M phosphoric acid. Plates were washed with PBS, pH 7.4, containing 0.05% Tween 20, between steps and all incubation steps were performed at room temperature on an orbital shaker. Absorbance was read at 450 nm on a multiskan Ascent reader (Thermo Scientific, Hudson, N.H.). The titration curves were fitted using a four-parameter nonlinear regression curve-fitting program (KaleidaGraph, Synergy software, Reading, Pa.).
(§2) For testing binding of Fc-fusion proteins or his-tagged proteins to TECD-Flag coated on the plate, horseradish peroxidase conjugated goat anti-human Fc (Jackson ImmunoResearch, West Grove, Pa.) or biotinylated anti-His (Penta-His, Qiagen, Valencia, Calif.) followed by horseradish peroxidase conjugated streptavidin was used for detection. For testing TECD-Flag coat, serially diluted mouse anti-Flag (Sigma, St. Louis, Mo.) was added to the plates followed by horseradish peroxidase conjugated goat anti-mouse Fc (Jackson ImmunoResearch). Serially diluted PDGF-AA was also added to wells coated with goat anti-PDGF for comparison to wells coated with 1 μg/ml TECD-Flag. Bound PDGF-AA was detected as described above.

[3] = biological target: T3, HER2 (human EGF-like receptor 2) ECD fused to hFcγ (human, UniProt P04626 23-652); experiment: ELISA, TECD-FLAG coat, anti-human Fc-HRP detection
T3 construct: extracellular domain; not shown: human Fc gamma
Method: as §1, §2

[4] = biological target: T4, HER3 (human EGF-like receptor 3) ECD fused to hFcγ (human, UniProt P21860 20-643); experiment: ELISA, TECD-FLAG coat, anti-human Fc-HRP detection
T4 construct: extracellular domain; not shown: human Fc gamma
T4 sequence (P21860 20-643): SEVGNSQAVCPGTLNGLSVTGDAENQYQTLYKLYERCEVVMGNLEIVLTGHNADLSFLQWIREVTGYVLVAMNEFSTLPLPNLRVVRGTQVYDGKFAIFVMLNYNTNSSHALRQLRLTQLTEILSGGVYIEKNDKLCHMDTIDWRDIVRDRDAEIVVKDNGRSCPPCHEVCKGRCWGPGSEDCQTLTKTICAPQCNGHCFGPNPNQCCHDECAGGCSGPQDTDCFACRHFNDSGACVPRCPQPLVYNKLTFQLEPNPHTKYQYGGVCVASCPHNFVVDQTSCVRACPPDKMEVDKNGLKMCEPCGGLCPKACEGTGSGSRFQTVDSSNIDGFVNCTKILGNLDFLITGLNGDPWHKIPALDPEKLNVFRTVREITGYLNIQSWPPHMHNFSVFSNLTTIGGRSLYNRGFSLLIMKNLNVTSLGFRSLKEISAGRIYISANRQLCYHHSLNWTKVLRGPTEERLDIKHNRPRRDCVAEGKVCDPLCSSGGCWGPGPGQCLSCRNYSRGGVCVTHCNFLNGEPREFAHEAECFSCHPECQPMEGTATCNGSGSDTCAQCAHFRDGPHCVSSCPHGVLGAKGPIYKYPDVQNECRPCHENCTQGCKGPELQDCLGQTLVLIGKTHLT
Method: as §1, §2

[5] = biological target: T5, EGFR (human epithelial growth factor receptor) ECD fused to hFcγ (human, UniProt P00533 25-645); experiment: ELISA, TECD-FLAG coat, anti-human Fc-HRP detection
T5 construct: extracellular domain; not shown: human Fc gamma
Method: as §1, §2

[6] = biological target: B5; experiment: ELISA, PDGF coat, anti-human Fc-HRP detection
Method: For the PDGF coat format, plates were coated with 1 μg/ml PDGF-AA, PDGF-AB, PDGF-BB, PDGF-CC, or PDGF-DD. Serially diluted TECD-Fc was added to the plates. Bound TECD-Fc was detected using horseradish peroxidase conjugated goat anti-human Fc (Jackson ImmunoResearch, West Grove, Pa.).
(§3) To confirm that the binding observed is indeed due to the interaction between PDGF-AA and TMEFF2-ECD, we then immobilized the PDGF ligands on the plates, and applied the TMEFF2-ECD fused to a different tag, TECD-Fc, as an analyte.

[7] = biological target: T6, recombinant human soluble PDGF receptor α extracellular domain (PDGF sRα) (human, UniProt P16234 24-528, biotinylated using biotin-X-NHS in the ELISAs (sRα-bio); sites not stated); experiment: ELISA, PDGF coat, sRα-bio, streptavidin-HRP detection (FIG. 9B)
T6 construct: extracellular domain; also called sRα-bio; soluble PDGFRα extracellular domain
T6 sequence (P16234 24-528): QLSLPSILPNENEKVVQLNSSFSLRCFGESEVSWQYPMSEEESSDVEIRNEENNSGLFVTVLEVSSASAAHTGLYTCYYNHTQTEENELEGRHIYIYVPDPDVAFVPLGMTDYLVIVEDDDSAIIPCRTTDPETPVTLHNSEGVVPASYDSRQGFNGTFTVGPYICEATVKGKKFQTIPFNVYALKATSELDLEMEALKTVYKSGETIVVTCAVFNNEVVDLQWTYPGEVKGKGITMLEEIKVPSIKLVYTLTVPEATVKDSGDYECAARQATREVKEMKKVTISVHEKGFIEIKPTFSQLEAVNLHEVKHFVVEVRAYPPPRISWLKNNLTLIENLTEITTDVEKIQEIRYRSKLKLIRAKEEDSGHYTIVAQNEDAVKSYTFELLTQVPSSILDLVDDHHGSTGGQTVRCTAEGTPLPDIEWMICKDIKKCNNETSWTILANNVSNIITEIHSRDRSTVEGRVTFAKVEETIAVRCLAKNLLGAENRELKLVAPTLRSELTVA
Method: FIG. 9 TECD-Fc competes with PDGF sRα for PDGF-AA binding. (A) PDGF-AA, but not AB, BB, CC or DD, binds to TECD-Fc. TECD-Fc was applied to wells coated with recombinant human PDGF-AA, AB, BB, CC or DD and detected with HRP-conjugated anti-human Fcγ. (B) sRα binds to all three recombinant human PDGF: AA, AB and BB. Biotinylated recombinant sRα (sRα-bio) was applied to wells coated with recombinant human PDGF-AA, AB, BB, CC or DD and detected with streptavidin-HRP. (C) 10 ng/ml TECD-Fc was mixed with increasing concentrations of sRα-bio and applied to PDGF-AA coated wells. Binding between sRα and PDGF-AA was detected using streptavidin-HRP.
as §3

[8] = biological target: B2; experiment: ELISA, TECD-FLAG coat, anti-human Fc-HRP detection
Method: as §1, §2

B1: no binding (tested: 5 µg/ml) [1].

B2: no binding [2]; no binding [3]; no binding [4]. B2: no binding [5].

B3: no binding [6].

B4: no binding [6]; binds [7].

B5: no binding [8].
